{
  "source": "paper PMC9456098",
  "about": "“Crystal Structure of the Recombination Mediator Protein RecO from Campylobacter jejuni and Its Interaction with DNA and a Zinc Ion”",
  "key": {"[1]": {"test_system": "cjSSB (Campylobacter jejuni (strain ATCC 33291?))", "assay": "fluorescence polarization", "settings": "FP: 20 mM Tris pH 8.0, 30 mM NaCl, 5 mM beta-mercaptoethanol, 0.8 nM fluorescein-ssDNA; temperature not stated; one-site model"}, "cjRecO": {"biological_target": "T1, cjRecO (Campylobacter jejuni subsp. jejuni ATCC …, UniProt Q0PC17 1-204)", "T1 sequence": "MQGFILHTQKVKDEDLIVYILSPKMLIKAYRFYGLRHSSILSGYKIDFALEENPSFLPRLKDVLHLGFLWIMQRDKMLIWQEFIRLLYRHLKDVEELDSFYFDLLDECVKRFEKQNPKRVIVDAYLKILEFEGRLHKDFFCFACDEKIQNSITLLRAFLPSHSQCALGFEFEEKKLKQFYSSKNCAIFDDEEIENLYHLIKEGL", "assay": "fluorescence polarization; no saturation up to 100 uM; binding detectable from ~1 uM; Kd stated as at least 20 uM; FP: 20 mM Tris pH 8.0, 30 mM NaCl, 5 mM beta-mercaptoethanol, 0.8 nM fluorescein-ssDNA; temperature not stated; one-site model", "settings": "protein: recombinant; tags: N-terminal His6 removed by thrombin (tag-free); single strand"}},
  "data": [
    {"molecule": "TTATAGGCATATAGGAGTAATTTTCTTGGGCTATGCAGTA [40-mer ssDNA]", "values": [
      {"measurement": "Kd", "setting": "[1]", "value": 21.4, "unit": "nM"}
    ]},
    {"molecule": "TTATAGGCATATAGGAGTAATTTTCTTGGGCTATGCAGTA (ssDNA)", "note": "[40-mer ssDNA]", "values": [
      {"measurement": "Kd", "setting": "cjRecO", "value": "> 20", "unit": "µM"}
    ]}
  ]
}
